Laboratory results as given in PMC7583250, “Type III ATP synthase is a symmetry-deviated dimer that induces membrane curvature through tetramerization” (Nature Communications, 2020).

Tests used:
[1] = target: type III mitochondrial F1Fo-ATP synthase (monomer) in complex with IF1 (Tetrahymena thermophila (endogenous in its mitochondria)) (UniProt Q951C1); assay: cryo-EM structure; native IF1-inhibited ATP synthase dimer purified from T. thermophila mitochondria in digitonin (25 mM Hepes/KOH pH 7.5, 25 mM KCl, 5 mM MgCl2, 0.1% w/v digitonin); 2.7 Å overall, masked refinements 2.5-3.1 Å
[2] = target: type III mitochondrial F1Fo-ATP synthase (monomer) in complex with IF1 (Tetrahymena thermophila (endogenous in its mitochondria)) (UniProt Q951C1); assay: cryo-EM structure; native ATP synthase tetramer particles of the same sample; 3.3 Å overall, Fo tetramer membrane region 3.1 Å; two dimer models refined into the Fo-tetramer map
[3] = target: T1, ATPTT1 (Tetrahymena thermophila, UniProt I7LVQ8); assay: cryo-EM structure; assay type: binding; settings: co-purified native cofactor in pocket of two Rossmann folds; oxidation state not stated
T1 construct: gene TTHERM_00137990; 55-kDa Fo-wing subunit of native mitochondrial ATP synthase dimer, purified in digitonin from T. thermophila mitochondria
T1 sequence (I7LVQ8 1-480): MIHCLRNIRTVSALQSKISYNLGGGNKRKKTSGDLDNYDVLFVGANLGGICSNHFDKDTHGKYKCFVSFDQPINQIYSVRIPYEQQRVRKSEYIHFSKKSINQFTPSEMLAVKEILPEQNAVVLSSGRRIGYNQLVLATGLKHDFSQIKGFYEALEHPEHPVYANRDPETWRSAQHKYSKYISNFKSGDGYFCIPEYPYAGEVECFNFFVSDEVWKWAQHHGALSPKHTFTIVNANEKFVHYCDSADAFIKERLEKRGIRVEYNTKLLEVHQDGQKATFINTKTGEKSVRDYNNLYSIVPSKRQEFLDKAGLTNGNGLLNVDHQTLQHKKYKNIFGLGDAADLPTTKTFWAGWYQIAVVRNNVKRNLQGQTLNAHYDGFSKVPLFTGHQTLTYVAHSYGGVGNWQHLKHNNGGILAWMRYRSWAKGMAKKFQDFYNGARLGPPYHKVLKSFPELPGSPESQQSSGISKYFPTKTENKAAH

[4] = target: F1 inhibitor protein IF1 (Tetrahymena thermophila (endogenous in its mitochondria)); assay: cryo-EM structure; native IF1-inhibited ATP synthase dimer purified from T. thermophila mitochondria in digitonin (25 mM Hepes/KOH pH 7.5, 25 mM KCl, 5 mM MgCl2, 0.1% w/v digitonin); 2.7 Å overall, masked refinements 2.5-3.1 Å
[5] = target: the molecule itself; assay: as above

“type III mitochondrial F1Fo-ATP synthase (monomer) in complex with IF1 (from UniProt Q951C1 1-446)” was tested, and the stoichiometry N [1] was 2 and the stoichiometry N [2] was 4.

In the case of `NC(=O)c1ccc[n+]([C@@H]2O[C@H](COP(=O)([O-])OP(=O)(O)OC[C@H]3O[C@@H](n4cnc5c(N)ncnc54)[C@H](O)[C@@H]3O)[C@@H](O)[C@H]2O)c1` [NAD], the cryo-EM structure [3] is reported as “in ATPTT1 the binding pocket formed by two Rossmann folds contains the co-factor”.

For “F1 inhibitor protein IF1 (natural protein)”, the stoichiometry N [4] was 2.

B1: ATP synthase subunit-a (natural protein, UniProt Q951C1 1-446, looked up)
chain: MGRENVLPVHNDVYEDFVFTTPYFQPESTFKSVPKLFSDILLGGVEWVYTTSESVLAYDYKLWYLWSGVSNLDESFDMFFNQYWALSLSTSVFQLFYAVILDRYLSVLFQNTPYTNDWFRMMLHSKETALIWLYHPELSWHINGLNQFFTYFYGGILEFVYFDKSNPDMCILVHTLWIHLLILFLIFTGFVTILFSFYGNPNTEENTIDSDYLAASGTVEAEKEITSIDDYLGLVFAIAYVFGVFFYVHGWTSMLSHAVLLLSCYSIIIMFLFILGMPTLLLYDFGIFFLAYLKGAGKYISSVAEMMFDYTACLVFYIRILAQWIRVVLMVVTFISLSHYVSDFDITNSALIGSENQSDSMNELNTNFSMTYYILTVLPGKFIYWIYEILHTFFVVCSQFVAFFAIVFWLFLFLYTFFIIEKHEDFFSKKREERKKKLKELWNLKN
notes: ATP synthase subunit a, Tetrahymena thermophila; overall length of 446 amino acids, with 170- and 38-amino acid N- and C-terminal extensions; source: endogenous, purified from T. thermophila mitochondria within the ATP synthase (digitonin, sucrose cushion, Superose 6)
B1: binds [5].
